Tests used:
PD-L1 on CHO-PD-L1 cells [1] = target: T1, PD-L1 on CHO-PD-L1 cells (human, UniProt Q9NZQ7); test: flow cytometry on cells
His-tag PD-L1 antigen [2] = target: T2, His-tag PD-L1 antigen (Homo sapiens, UniProt Q9NZQ7); test: BLI
His-tag PD-L1 antigen [3] = target: T2, His-tag PD-L1 antigen; test: ELISA
[4] = target: mFc-tag CD47 antigen (human) (UniProt Q08722); test: BLI
[5] = target: mFc-tag CD47 antigen (human) (UniProt Q08722); test: ELISA
[6] = target: T3, PD-L1 on CD47+/PD-L1+ tumor cells (RKO, ES-2, HT-1080, HCC827) (human (endogenous in RKO, ES-2, …, UniProt Q9NZQ7)); test: flow cytometry on cells
PD-L1 on CHO-PD-L1 cells [7] = target: T1, PD-L1 on CHO-PD-L1 cells; test: flow cytometry on cells; remark: listed apart in the source
[8] = target: T3, PD-L1 on CD47+/PD-L1+ tumor cells (RKO, …); test: flow cytometry on cells; remark: listed apart in the source

T1 sequence (Q9NZQ7 19-290): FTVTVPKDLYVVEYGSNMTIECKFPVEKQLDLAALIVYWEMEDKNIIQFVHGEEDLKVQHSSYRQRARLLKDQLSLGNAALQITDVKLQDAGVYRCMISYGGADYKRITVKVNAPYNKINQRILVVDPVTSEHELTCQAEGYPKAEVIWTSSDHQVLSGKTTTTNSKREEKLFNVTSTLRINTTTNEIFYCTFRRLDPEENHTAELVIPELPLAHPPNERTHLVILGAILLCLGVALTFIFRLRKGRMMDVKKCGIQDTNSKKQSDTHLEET
T3 sequence (Q9NZQ7 19-290): as above
Chain of mFc-tag CD47 antigen (human) (Q08722 19-323): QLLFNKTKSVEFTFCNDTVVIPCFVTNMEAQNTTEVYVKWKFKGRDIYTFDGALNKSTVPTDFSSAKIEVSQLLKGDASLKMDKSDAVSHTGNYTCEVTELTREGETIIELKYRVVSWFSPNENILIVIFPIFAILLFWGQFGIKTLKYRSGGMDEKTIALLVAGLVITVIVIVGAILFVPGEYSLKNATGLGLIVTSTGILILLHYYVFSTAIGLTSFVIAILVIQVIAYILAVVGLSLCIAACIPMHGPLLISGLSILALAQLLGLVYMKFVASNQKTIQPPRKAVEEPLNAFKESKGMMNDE
T2 sequence (Q9NZQ7 19-238): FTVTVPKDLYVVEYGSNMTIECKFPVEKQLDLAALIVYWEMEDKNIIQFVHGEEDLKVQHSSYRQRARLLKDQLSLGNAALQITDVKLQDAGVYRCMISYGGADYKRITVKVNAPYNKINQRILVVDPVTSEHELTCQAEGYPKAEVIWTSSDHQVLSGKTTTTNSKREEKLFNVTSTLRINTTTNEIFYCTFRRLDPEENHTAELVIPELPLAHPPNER

B1: IMM2520 (bispecific antibody, V domains shown)
VH: QVQLVQSGAEVKKPGASVKVSCKASGYTFTSNWMHWVRQAPGQGLEWMGMIHPNSGSSNYNEKFKSRVTMTRDTSTSTVYMELSSLRSEDTAVYYCARSYYGSSPYYFDYWGQGTLVTVSS
VL: DIQMTQSPSSLSASVGDRVTITCRASQDIINYLNWYQQKPGKAPKLLIYYTSRLHSGVPSRFSGSGSGTDFTFTISSLQPEDIATYYCQQGDTLPWTFGQGTKVEIK
Binder B1 has an EC50 (PD-L1 on CHO-PD-L1 cells [1]) of 0.845 nM, a Kd (His-tag PD-L1 antigen [2]) of 0.576 nM and an EC50 (His-tag PD-L1 antigen [3]) of 0.456 nM. It also gave a Kd [4] of 2.49 nM, an EC50 [5] of 0.079 nM and an EC50 [6] of 0.145 nM. For the same binder, the IC50 (PD-L1 on CHO-PD-L1 cells [7]) was 0.121 nM and the IC50 [8] was 0.0123 nM.

Source: publication PMC11564011 (Heliyon, 2024)
